Laboratory results published in publication PMC8351461 (Frontiers in Immunology, 2021).

Key:
Assay in all cases: pull-down
Conditions in all cases: both partners purified
[1] = molecular target: T1, SARS-CoV-2 Nucleocapsid (N) protein, full-length (SARS-CoV-2, reference Wuhan-Hu-1 …, UniProt P0DTC9)
T1 construct: also called full-length N; FL

[2] = molecular target: T2, SARS-CoV-2 N protein C-terminal intrinsically disordered region (residues 365-419) (SARS-CoV-2, reference Wuhan-Hu-1 …, UniProt P0DTC9)
T2 construct: also called C-IDR

[3] = molecular target: T3, SARS-CoV-2 N protein RNA-binding domain (residues 49-174) (SARS-CoV-2, UniProt P0DTC9)
T3 construct: also called N^49-174; N^RBD

B1: single-domain antibody sdAb-N3 (VHH)
VHH: KVKLQQSGGGLVQTGGSLRLSCAPSGRTFSVNAMGWYRQAPGKQREPVALISTGGSTNYADSVKGRFTISRDNVKNTVYLQMNTLKPEDTAVYYCYTERWKPRGIERDWGQGTQVTVSS
notes: not shown: His6, C-terminal, kept
binding result [1]: binds
binding result [2]: binds

B2: single-domain antibody sdAb-C2 (VHH)
VHH: EVQLQASGGGLVRPGGSLRLSCAASGFTFSSYAMMWVRQAPGKGLEWVSAINGGGGSTSYADSVKGRFTISRDNAKNTLYLQMNSLKPEDTAVYYCAKYQAAVHQEKEDYWGQGTQVTVSS
notes: as for B1
binding result [3]: binds
binding result [1]: binds

B3: single-domain antibody sdAb-E2 (VHH)
VHH: EVQLQASGGGLVQAGGSLRLSCAASGRTDSTQHMAWFRQAPGKEREFVTAIQWRGGGTSYTDSVKGRFTISRDNAKNTVYLEMNSLKPEDTAVYYCATNTRWTYFSPTVPDRYDYWGQGTQVTVSS
notes: as for B1
binding result [1]: binds

B4: single-domain antibody sdAb-B6 (VHH)
VHH: EVQLQASGGGLVQAGDSLRLSCVAVSGRTISTFAMGWFRQAPGKEREFVATINWSGSSARYADPVEGRFTISRDDAKNTVYLEMSSLKPGDSAVYYCASGRYLGGITSYSQGDFAPWGQGTQVTVSS
notes: as for B1
binding result [1]: binds
